# Results taken from patent US9234893B2, “Marker comprising anti-CK8/18 complex autoantibody and its use for diagnosing cancer” (Korea Research Institute of Bioscience and Biotechnology, priority 2011, dated 2016).
# Entries after “also recorded” stand apart in the source; their conditions may differ.
# T1: CK18 (Homo sapiens, UniProt P05783)
# T1 construct: made in house; host or cells: E. coli BL21 (DE3)
# T1 sequence (P05783 1-430): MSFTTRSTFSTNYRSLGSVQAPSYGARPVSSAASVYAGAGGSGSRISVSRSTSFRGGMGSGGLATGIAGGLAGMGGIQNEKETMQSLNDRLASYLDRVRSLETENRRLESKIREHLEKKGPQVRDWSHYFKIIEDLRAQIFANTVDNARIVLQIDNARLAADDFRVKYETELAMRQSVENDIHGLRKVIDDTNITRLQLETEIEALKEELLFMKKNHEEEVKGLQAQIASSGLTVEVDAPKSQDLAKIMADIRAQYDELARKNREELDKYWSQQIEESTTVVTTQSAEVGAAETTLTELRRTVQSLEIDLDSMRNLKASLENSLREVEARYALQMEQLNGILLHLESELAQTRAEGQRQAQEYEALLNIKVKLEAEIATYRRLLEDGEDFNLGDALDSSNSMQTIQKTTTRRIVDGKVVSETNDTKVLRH
# T2: CK8 (Homo sapiens, UniProt P05787)
# T2 construct: made in house; host or cells: E. coli BL21 (DE3)
# T2 sequence (P05787 1-483): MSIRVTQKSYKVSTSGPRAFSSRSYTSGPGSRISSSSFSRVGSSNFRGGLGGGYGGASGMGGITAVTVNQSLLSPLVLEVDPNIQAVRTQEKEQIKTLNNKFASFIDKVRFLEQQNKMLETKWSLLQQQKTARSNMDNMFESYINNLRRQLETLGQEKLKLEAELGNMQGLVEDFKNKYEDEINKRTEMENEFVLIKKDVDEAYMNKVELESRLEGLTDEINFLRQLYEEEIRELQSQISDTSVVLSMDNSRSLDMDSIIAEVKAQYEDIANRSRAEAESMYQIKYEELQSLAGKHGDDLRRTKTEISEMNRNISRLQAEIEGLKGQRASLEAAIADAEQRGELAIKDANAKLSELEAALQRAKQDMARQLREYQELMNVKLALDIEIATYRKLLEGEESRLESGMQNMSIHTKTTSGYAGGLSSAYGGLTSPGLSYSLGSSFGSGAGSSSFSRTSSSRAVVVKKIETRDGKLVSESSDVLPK
# T3: CK8/18 mixture (CK8/18 complex) (Homo sapiens, UniProt P05783+P05787)
# T3 construct: made in house; host or cells: E. coli BL21 (DE3)
# T3 sequence (P05787 1-483): T2 sequence (P05787 1-483)
# T3 sequence (P05783 1-430): T1 sequence (P05783 1-430)
# T4: CK8/18 complex (Homo sapiens, UniProt P05783+P05787)
# T4 construct: made in house; host or cells: E. coli BL21 (DE3)
# T4 sequence (P05787 1-483): T2 sequence (P05787 1-483)
# T4 sequence (P05783 1-430): T1 sequence (P05783 1-430)
# B1: TAB-K94 antibody: Monoclonal autoantibody against cytokeratin 8/18 complex from hybridoma KCTC 11799BP; heavy chain SEQ ID NO. 1, light chain SEQ ID NO. 2 (antibody, V domains shown)
# VH: XVXLXQSGPGILQPSQTLSLTCSFSGFSLSTFGMGVGWIRQPSGKGLEWLAHIWWDDDKYYNPALKSRLTISKDTSKNQVFLKIANVDTADTATYYCARIGGYYGSSSWYFDVWGTGTTVTVSSESQSFPNVRSS
# VL: DIVITQTPSSLSASLGGKVTITCKASQDINKYIAWYQHKPGKGPRLLIHYTSTLQPGIPSRFSGSGSGRDYSFSISNLEPEDIATYYCLQYDNLLTFGGGTKLEIKRADAAPTVS
# modifications: not fully specified; a heavy chain variable region; a light chain variable region
# How the values were obtained:
# TAB-K94 antibody = assay: ELISA with selected phage as coating antigen and TAB-K94 antibody as primary antibody; format: binding, mouse; settings: 100 ng/100 μl TAB-K94 antibody, absorbance at 450 nm
# Method: In order to examine the reactivity of the selected TAB-K94 antibody-specific phages against TAB-K94 antibody, ELISA was performed using the phage as a coating antigen and TAB-K94 antibody as a primary antibody. The detailed method is as follows:
# […] was diluted in 100 μl of a coating solution (0.1 M sodium bicarbonate buffer, pH 8.6) and added to each well of 96-well Maxisorp ELISA plate. For antigen coating, the phage-added plate was stored at 4° C. for 16 hours or longer. After phage coating, 300 μl of skim milk solution (5% (w/v) skim milk/TBST) was added, and reacted at room temperature for 1 hour to block the remaining sites after antigen coating. After blocking, the plate was washed with TBST (TBS containing 0.1% Tween-20) twice, and 100 ng/100 μl of TAB-K94 antibody was added thereto, and reacted at room temperature for 90 minutes. […] The secondary antibody was also reacted at room temperature for 90 minutes, and the plate was washed with TBST six times. Color development was performed using a TMB solution (Pierce) as a substrate for HRP. Absorbance was measured at 450 nm to quantify the antigen-antibody reaction.
# Chang liver cells = assay: Flow cytometry after intracellular staining of cell lines with TAB-K94 antibody; format: cell-based; settings: normal cell line
# Method: (§1) The reactivity of autoantibodies against cancer cells was examined by flow cytometric analysis of cancer cell line after intracellular staining following the fixation and permeabilization. The method is described in detail as follows. A liver cancer cell line, HepG2 or Hepa1c1c7 at 70-80% confluency was treated with trypsin, detached from the cell culture plate, and washed with PBS. 100 μl of Cytofix/Cytoperm solution (BD) per 2×10^5 cells was added thereto, and the cells were incubated at 4° C. for 20 minutes for fixation and permeabilization. After incubation, 1 ml of Cytowash/Cytoperm solution (BD) was added and mixed well. Then the mixture was centrifuged at 1700 rpm for 5 minutes and the cell pellet was washed. 50 μl of a primary antibody solution (B cell hybridoma cell culture medium or purified primary antibody solution) was added to the washed sample, and the incubation was performed at 4° C. for 40 minutes. After incubation, the cells were washed three times, and treated with anti-mouse Igs-RPE (DaKo) at 4° C. for 40 minutes. Then, the cells were washed an additional three times, and the cell pellet was resuspended in 300 μl of PBS, followed by analysis using a FACSCaliber (BD). Mean values of fluorescence corresponding to antibody reactions were obtained and compared. 50 μl of mouse antibody free DMEM medium was added to the control group showing no antibody reaction.
# (§2) The reactivity of TAB-K94 autoantibodies against various cancer cell lines was examined by flow cytometric analysis after intracellular staining of various cancer cell lines in the same manner as in Example 1 (FIG. 3A).
# HT22 neuronal cells = assay: as above; format: cell-based; settings: normal cell line
# Method: as §1, §2
# [1] = test system: breast cancer cell line MCF-7; assay: as above; format: cell-based
# Method: as §1, §2
# [2] = test system: liver cancer cell line HepG2; assay: as above; format: cell-based
# Method: as §1, §2
# [3] = test system: human breast cancer tissues; assay: Immunohistostaining of human cancer tissues using TAB-K94 antibody; settings: in particular invasive front
# Excerpt: (§3) Based on the reactivity against cancer cells, expression of TAB-K94 antibody-reactive antigen was examined by immunohistostaining of human liver cancer tissues and breast cancer tissues using TAB-K94 antibodies.
# [4] = test system: human liver cancer tissues; assay: as above; settings: liver cancer tissues (data not shown)
# Excerpt: as §3
# [5] = test system: breast cancer cell line MCF-7; assay: Western blotting of cell lysate and serum-free cell culture medium with TAB-K94 antibody; format: binding; settings: MCF-7 cell lysate and cell culture medium, 50 μg protein
# Method: Expression of TAB-K94 antibody-specific antigen proteins was examined in various cancer cell lines by Western blotting (FIG. 5A). The detailed method is as follows. The cells to be analyzed were collected and dissolved in PBS containing RIPA buffer (0.1% (w/v) SDS, 0.1% (w/v) sodium deoxycholate, 1.0% (v/v) NP40, protease inhibitor cocktail (Roche)) to be used as protein analysis samples. Protein quantification was performed by Bradford assay. Each 50 μg of the prepared protein samples was run on 10% reduced SDS-PAGE, and transferred onto a PVDF membrane. […] As a result, the TAB-K94 antibody-specific antigens were found in the liver cancer cell lines including Hep3B, PLC/PRF/5, and SK-Hep1 as a band having a molecular weight of 45 kDa.
# For induction of antibodies in the individual, a specific protein should be released into the blood. That is, extracellular release of proteins expressed within the cells supports the induction of autoantibodies. Therefore, the presence of antigens was examined in the cell culture medium of cell lines expressing TAB-K94 antibody-specific antigens by Western blotting. Each 10 ml of serum-free cell culture medium was collected, and concentrated, and each 50 μg of the quantified protein was run on 10% reduced SDS-PAGE. Western blotting was performed in the same manner as above.
# [6] = test system: MCF-7 or HT29 cells having the suppressed CK8 or CK18 expression; assay: Flow cytometry of cells with siRNA-suppressed CK8 or CK18 expression; format: cell-based; settings: 72 hours after siRNA treatment
# Method: As siRNAs for the suppression of CK8 and CK18 expression, siRNAs (CK8 Sense: 5′-CCG CAG UUA CGG UCA ACC A(dTdT)-3′ (SEQ ID NO. 23), Antisense: 5′-UGG UUG ACC GUA ACU GCG G(dTdT)-3′ (SEQ ID NO. 24), CK18 Sense: 5′-CUC ACA GAG CUG AGA CGU A(dTdT)-3′ (SEQ ID NO. 25), Antisense: 5′-UAC GUC UCA GCU CUG UGA C(dTdT)-3′ (SEQ ID NO. 26)) provided by Bioneer were used, and injected into MCF-7 or HT29 cells using Lipofectamine 2000 (Invitrogen). 72 hours after siRNA treatment, the cells were collected to extract total RNA, and 5 μg of RNA was used as a template to synthesize cDNA. The synthesized cDNA was used as a template to perform polymerase chain reaction using primers having specificity to CK8 and CK18. The resulting product was analyzed on a 1% agarose gel.
# The cells showing the suppressed CK8 and CK18 expression by siRNA in RT-PCR were subjected to flow cytometry in the same manner as in Examples 1 and 3, in order to examine their TAB-K94 antibody reaction. […] However, the previous studies reported that […] form a complex to exert intracellular function. Therefore, it can be assumed that variation in the expression of one of the two proteins affects that of the other protein, and this assumption was examined by Western blotting. After treatment of siRNA for CK8 or CK18, Western blotting was performed using specific antibody to each.
# CK18 [7] = molecular target: T1, CK18; assay: Western blotting of recombinant proteins with TAB-K94 antibody; format: binding; settings: CK18 run alone
# Excerpt: (§4) ID NO. 33), CK18 [NT] ID NO. 34), [NT] ID NO.
# CK8 [8] = molecular target: T2, CK8; assay: as above; format: binding; settings: CK8 run alone
# Excerpt: as §4
# [9] = molecular target: T3, CK8/18 mixture (CK8/18 complex); assay: as above; format: binding; settings: mixture of CK8 and CK18
# Excerpt: as §4
# CK8 [10] = molecular target: T2, CK8; assay: ELISA with recombinant protein as coating antigen; format: binding
# CK18 [11] = molecular target: T1, CK18; assay: ELISA with recombinant protein as coating antigen; format: binding
# CK8/18 complex = molecular target: T4, CK8/18 complex; assay: ELISA with recombinant protein as coating antigen; format: binding; settings: mixture of the two proteins as coating antigen
# [12] = test system: HepG2, MCF-7 and HT29 cells; assay: Intracellular localization by fluorescence staining and confocal laser microscopy; format: cell-based; settings: primary antibody 5 μg/ml
# Method: In order to examine intracellular localization of the TAB-K94 antigen expression, the corresponding cells were cultured on a coverslip, and then intracellular staining was performed, followed by observation using confocal laser microscopy (Zeiss). […] The stained coverslip was treated with a mounting solution containing DAPI, and placed on a slide. […] It was confirmed that the TAB-K94 antibody-specific antigen is a CK8/18 complex, and thus the cells were stained with CK8 and CK18-specific antibodies to compare with the localization of TAB-K94 antibody reaction.
molecule,measurement,setting,value
ISPDAHS (Ile-Ser-Pro-Asp-Ala-His-Ser) [K94p1],reactivity against TAB-K94 antibody in ELISA,TAB-K94 antibody,high reactivity
TLSHTRT (Thr-Leu-Ser-His-Thr-Arg-Thr) [K94p7],reactivity against TAB-K94 antibody in ELISA,TAB-K94 antibody,no reactivity
B1,reactivity measured by flow cytometry after intracellular staining,Chang liver cells,lower reactivity
same,reactivity measured by flow cytometry after intracellular staining,HT22 neuronal cells,lower reactivity
same,reactivity measured by flow cytometry after intracellular staining,[1],High reactivity; also recorded: noticeably increased
same,reactivity measured by flow cytometry after intracellular staining,[2],High reactivity; also recorded: noticeably increased
same,staining of tissue by immunohistochemistry,[3],strong complete staining; also recorded: strong staining around cell membrane
same,staining of tissue by immunohistochemistry,[4],hardly any distinct reaction; also recorded: no distinct reaction
same,reactivity in Western blotting,[5],very high reactivity
same,TAB-K94 antibody reaction after siRNA suppression of CK8 or CK18,[6],reduced
same,reactivity in Western blotting,CK18 [7],no reactivity
same,reactivity in Western blotting,CK8 [8],no reactivity
same,reactivity in Western blotting,[9],showed reactivity
same,reactivity in ELISA,CK8 [10],not observed
same,reactivity in ELISA,CK18 [11],not observed
same,reactivity in ELISA,CK8/18 complex,the reactivity was observed
same,intracellular localization of staining,[12],strongly localized in the cell membrane
